This note sets out measurements from FireProtDB (doi:10.1021/bi010565n).

First the molecules themselves.
B1: Guanyl-specific ribonuclease T1, P00651 (parent)
chain: MMYSKLLTLTTLLLPTALALPSLVERACDYTCGSNCYSSSDVSTAQAAGYQLHEDGETVGSNSYPHKYNNYEGFDFSVSSPYYEWPILSSGDVYSGGSPGADRVVFNENNQLAGVITHTGASGNNFVECT

One series covers variants of B1. The conditions noted are these: Aspergillus oryzae (strain ATCC 42149 / RIB 40); pH 7; 25 °C; Thermal; DSC; MOPS 30 mM; reversible: yes(0.98); structure 1RN1; whole UniProt chain shown.
With MMYSKLLTLTTLLLPTALALPSLVERACDYTCGSNCYSSSDASTAQAAGYQLHEDGETVGSNSYPHKYNNYEGFDFSVSSPYYEWPILSSGDVYSGGSPGADRVVFNENNQLAGVITHTGASGNNFVECT [V42A], the “ddG of mutation (higher = less stable)” value came to 2.19 kcal/mol and the “heat capacity change of unfolding” value was determined as 1.29 kcal/mol/K.
For MMYSKLLTLTTLLLPTALALPSLVERACDYTCGSNCYSSSDVSTAQAAGYQLHEDGETVGSNSYPHKYNNYEGFDFSVSSPYYEWPILSSGDVYSGGSPGADRTVFNENNQLAGVITHTGASGNNFVECT [V104T], in that order: 3.1 kcal/mol and 1.29 kcal/mol/K.

The series is the same for the next values; noted with them: Aspergillus oryzae (strain ATCC 42149 / RIB 40); pH 7; Thermal; CD; MOPS 30 mM; reversible: yes(0.98); structure 1RN1; whole UniProt chain shown.
In the case of MMYSKLLTLTTLLLPTALALPSLVERACDYTCGSNCYSSSDASTAQAAGYQLHEDGETVGSNSYPHKYNNYEGFDFSVSSPYYEWPILSSGDVYSGGSPGADRVVFNENNQLAGVITHTGASGNNFVECT [V42A], the Tm came to 43 °C and the “change of melting temperature, mutant - wild type (higher = more stable)” value (from here on “change of melting temperature, mutant”) is -8.2 °C.
For MMYSKLLTLTTLLLPTALALPSLVERACDYTCGSNCYSSSDVSTAQAAGYQLHEDGETVGSNSYPHKYNNYEGFDFSVSSPYYEWPILSSGDVYSGGSPGADRTVFNENNQLAGVITHTGASGNNFVECT [V104T], in that order: 41.4 °C and -9.8 °C.

The series is the same for the next values; noted with them: Aspergillus oryzae (strain ATCC 42149 / RIB 40); pH 7; Thermal; DSC; MOPS 30 mM; reversible: yes(0.98); structure 1RN1; whole UniProt chain shown.
Regarding MMYSKLLTLTTLLLPTALALPSLVERACDYTCGSNCYSSSDASTAQAAGYQLHEDGETVGSNSYPHKYNNYEGFDFSVSSPYYEWPILSSGDVYSGGSPGADRVVFNENNQLAGVITHTGASGNNFVECT [V42A], the Tm was 44.5 °C and the “change of melting temperature, mutant” value was -7 °C.
Take MMYSKLLTLTTLLLPTALALPSLVERACDYTCGSNCYSSSDVSTAQAAGYQLHEDGETVGSNSYPHKYNNYEGFDFSVSSPYYEWPILSSGDVYSGGSPGADRTVFNENNQLAGVITHTGASGNNFVECT [V104T]: the midpoint of thermal melting (Tm) is 40.2 °C and the “change of melting temperature, mutant” value is -11.3 °C.

The same series, now with this note: Aspergillus oryzae (strain ATCC 42149 / RIB 40); pH 7; 25 °C; Thermal; DSC; MOPS 30 mM; reversible: yes(0.18); structure 1RN1; whole UniProt chain shown.
For MMYSKLLTLTTLLLPTALALPSLVERACDYTCGSNCYSSSDCSTAQAAGYQLHEDGETVGSNSYPHKYNNYEGFDFSVSSPYYEWPILSSGDVYSGGSPGADRVVFNENNQLAGVITHTGASGNNFVECT [V42C], the “ddG of mutation (higher = less stable)” value was 4.68 kcal/mol and the “heat capacity change of unfolding” value turned out to be 1.29 kcal/mol/K.

Staying with this series, now noted: Aspergillus oryzae (strain ATCC 42149 / RIB 40); pH 7; 25 °C; Urea; CD; MOPS 30 mM; reversible: yes(0.18); structure 1RN1; whole UniProt chain shown.
Consider MMYSKLLTLTTLLLPTALALPSLVERACDYTCGSNCYSSSDCSTAQAAGYQLHEDGETVGSNSYPHKYNNYEGFDFSVSSPYYEWPILSSGDVYSGGSPGADRVVFNENNQLAGVITHTGASGNNFVECT [V42C], for which the “ddG of mutation (higher = less stable)” value turned out to be 5.3 kcal/mol.

The same series, now with this note: Aspergillus oryzae (strain ATCC 42149 / RIB 40); pH 7; Thermal; CD; MOPS 30 mM; reversible: yes(0.18); structure 1RN1; whole UniProt chain shown.
On to MMYSKLLTLTTLLLPTALALPSLVERACDYTCGSNCYSSSDCSTAQAAGYQLHEDGETVGSNSYPHKYNNYEGFDFSVSSPYYEWPILSSGDVYSGGSPGADRVVFNENNQLAGVITHTGASGNNFVECT [V42C], for which the Tm was found to be 41.6 °C and the “change of melting temperature, mutant” value is -9.6 °C.

The series is the same for the next values; noted with them: Aspergillus oryzae (strain ATCC 42149 / RIB 40); pH 7; Thermal; DSC; MOPS 30 mM; reversible: yes(0.18); structure 1RN1; whole UniProt chain shown.
Consider MMYSKLLTLTTLLLPTALALPSLVERACDYTCGSNCYSSSDCSTAQAAGYQLHEDGETVGSNSYPHKYNNYEGFDFSVSSPYYEWPILSSGDVYSGGSPGADRVVFNENNQLAGVITHTGASGNNFVECT [V42C], for which the Tm came out at 42.6 °C and the “change of melting temperature, mutant” value was -8.9 °C.

Still in this series, the particulars now being: Aspergillus oryzae (strain ATCC 42149 / RIB 40); pH 7; 25 °C; Thermal; DSC; MOPS 30 mM; reversible: yes(1.03); structure 1RN1; whole UniProt chain shown.
With MMYSKLLTLTTLLLPTALALPSLVERACDYTCGSNCYSSSDSSTAQAAGYQLHEDGETVGSNSYPHKYNNYEGFDFSVSSPYYEWPILSSGDVYSGGSPGADRVVFNENNQLAGVITHTGASGNNFVECT [V42S], the “ddG of mutation (higher = less stable)” value turned out to be 4.71 kcal/mol and the “heat capacity change of unfolding” value was 1.29 kcal/mol/K.

Still in this series, the particulars now being: Aspergillus oryzae (strain ATCC 42149 / RIB 40); pH 7; 25 °C; Urea; CD; MOPS 30 mM; reversible: yes(1.03); structure 1RN1; whole UniProt chain shown.
Consider MMYSKLLTLTTLLLPTALALPSLVERACDYTCGSNCYSSSDSSTAQAAGYQLHEDGETVGSNSYPHKYNNYEGFDFSVSSPYYEWPILSSGDVYSGGSPGADRVVFNENNQLAGVITHTGASGNNFVECT [V42S], for which the “ddG of mutation (higher = less stable)” value was 4.66 kcal/mol.

The same series, now with this note: Aspergillus oryzae (strain ATCC 42149 / RIB 40); pH 7; Thermal; CD; MOPS 30 mM; reversible: yes(1.03); structure 1RN1; whole UniProt chain shown.
In the case of MMYSKLLTLTTLLLPTALALPSLVERACDYTCGSNCYSSSDSSTAQAAGYQLHEDGETVGSNSYPHKYNNYEGFDFSVSSPYYEWPILSSGDVYSGGSPGADRVVFNENNQLAGVITHTGASGNNFVECT [V42S], the Tm turned out to be 35.6 °C and the “change of melting temperature, mutant” value is -15.6 °C.

The series is the same for the next values; noted with them: Aspergillus oryzae (strain ATCC 42149 / RIB 40); pH 7; Thermal; DSC; MOPS 30 mM; reversible: yes(1.03); structure 1RN1; whole UniProt chain shown.
Take MMYSKLLTLTTLLLPTALALPSLVERACDYTCGSNCYSSSDSSTAQAAGYQLHEDGETVGSNSYPHKYNNYEGFDFSVSSPYYEWPILSSGDVYSGGSPGADRVVFNENNQLAGVITHTGASGNNFVECT [V42S]: the melting temperature (Tm) was 36.9 °C and the “change of melting temperature, mutant” value is -14.6 °C.

The same series, now with this note: Aspergillus oryzae (strain ATCC 42149 / RIB 40); pH 7; 25 °C; Thermal; DSC; MOPS 30 mM; reversible: yes(1.04); structure 1RN1; whole UniProt chain shown.
On to MMYSKLLTLTTLLLPTALALPSLVERACDYTCGSNCYSSSDTSTAQAAGYQLHEDGETVGSNSYPHKYNNYEGFDFSVSSPYYEWPILSSGDVYSGGSPGADRVVFNENNQLAGVITHTGASGNNFVECT [V42T], for which the “ddG of mutation (higher = less stable)” value was found to be 4.1 kcal/mol and the “heat capacity change of unfolding” value is 1.29 kcal/mol/K.

Still in this series, the particulars now being: Aspergillus oryzae (strain ATCC 42149 / RIB 40); pH 7; 25 °C; Urea; CD; MOPS 30 mM; reversible: yes(1.04); structure 1RN1; whole UniProt chain shown.
Regarding MMYSKLLTLTTLLLPTALALPSLVERACDYTCGSNCYSSSDTSTAQAAGYQLHEDGETVGSNSYPHKYNNYEGFDFSVSSPYYEWPILSSGDVYSGGSPGADRVVFNENNQLAGVITHTGASGNNFVECT [V42T], the “ddG of mutation (higher = less stable)” value amounted to 3.2 kcal/mol.

Still in this series, the particulars now being: Aspergillus oryzae (strain ATCC 42149 / RIB 40); pH 7; Thermal; DSC; MOPS 30 mM; reversible: yes(1.04); structure 1RN1; whole UniProt chain shown.
MMYSKLLTLTTLLLPTALALPSLVERACDYTCGSNCYSSSDTSTAQAAGYQLHEDGETVGSNSYPHKYNNYEGFDFSVSSPYYEWPILSSGDVYSGGSPGADRVVFNENNQLAGVITHTGASGNNFVECT [V42T]: the melting temperature (Tm) worked out at 42.1 °C and the “change of melting temperature, mutant” value is -9.4 °C.

The series is the same for the next values; noted with them: Aspergillus oryzae (strain ATCC 42149 / RIB 40); pH 7; 25 °C; Urea; CD; MOPS 30 mM; structure 1RN1; whole UniProt chain shown.
As to MMYSKLLTLTTLLLPTALALPSLVERACDYTCGSNCYSSSDVSTAQAAGYQLHEDGETVGSNSYPHKYNNYEGFDFSVSSPYYEWPILSSGDVYSGGSPGADRVVFNENNQLAGTITHTGASGNNFVECT [V115T], the “ddG of mutation (higher = less stable)” value came to 3.07 kcal/mol.
Same read-out and setting: next, MMYSKLLTLTTLLLPTALALPSLVERACDYTCGSNCYSSSDVSTAQAAGYQLHEDGETVGSNSYPHKYNNYEGFDFSVSSPYYEWPILSSGDVYSGGSPGADRVVFNENNQLAGSITHTGASGNNFVECT [V115S]: 4.87 kcal/mol; MMYSKLLTLTTLLLPTALALPSLVERACDYTCGSNCYSSSDVSTAQAAGYQLHEDGETVGSNSYPHKYNNYEGFDFSVSSPYYEWPILSSGDVYSGGSPGADRVVFNENNQLAGCITHTGASGNNFVECT [V115C]: 3.54 kcal/mol; MMYSKLLTLTTLLLPTALALPSLVERACDYTCGSNCYSSSDVSTAQAAGYQLHEDGETVGSNSYPHKYNNYEGFDFSVSSPYYEWPILSSGDVYSGGSPGADRCVFNENNQLAGVITHTGASGNNFVECT [V104C]: 3.67 kcal/mol.
On the same count and under the same terms, in the case of MMYSKLLTLTTLLLPTALALPSLVERACDYTCGSNCYSSSDVSTAQAAGYQLHEDGETVGSNSYPHKYNNYEGFDFSVSSPYYEWPILSSGDVYSGGSPGADRAVFNENNQLAGVITHTGASGNNFVECT [V104A] it was 4.08 kcal/mol.

The series is the same for the next values; noted with them: Aspergillus oryzae (strain ATCC 42149 / RIB 40); pH 7; Thermal; CD; MOPS 30 mM; structure 1RN1; whole UniProt chain shown.
With MMYSKLLTLTTLLLPTALALPSLVERACDYTCGSNCYSSSDVSTAQAAGYQLHEDGETVGSNSYPHKYNNYEGFDFSVSSPYYEWPILSSGDVYSGGSPGADRVVFNENNQLAGTITHTGASGNNFVECT [V115T], the melting temperature (Tm) is 38 °C and the “change of melting temperature, mutant” value is -13.2 °C.
With MMYSKLLTLTTLLLPTALALPSLVERACDYTCGSNCYSSSDVSTAQAAGYQLHEDGETVGSNSYPHKYNNYEGFDFSVSSPYYEWPILSSGDVYSGGSPGADRVVFNENNQLAGSITHTGASGNNFVECT [V115S], the Tm came out at 29.6 °C and the “change of melting temperature, mutant” value was -21.6 °C.
For MMYSKLLTLTTLLLPTALALPSLVERACDYTCGSNCYSSSDVSTAQAAGYQLHEDGETVGSNSYPHKYNNYEGFDFSVSSPYYEWPILSSGDVYSGGSPGADRVVFNENNQLAGCITHTGASGNNFVECT [V115C], in that order: 46.3 °C and -4.9 °C.
Taken in the same sequence, the figures for MMYSKLLTLTTLLLPTALALPSLVERACDYTCGSNCYSSSDVSTAQAAGYQLHEDGETVGSNSYPHKYNNYEGFDFSVSSPYYEWPILSSGDVYSGGSPGADRAVFNENNQLAGVITHTGASGNNFVECT [V104A] were 43.3 °C and -7.9 °C.
For MMYSKLLTLTTLLLPTALALPSLVERACDYTCGSNCYSSSDVSTAQAAGYQLHEDGETVGSNSYPHKYNNYEGFDFSVSSPYYEWPILSSGDVYSGGSPGADRSVFNENNQLAGVITHTGASGNNFVECT [V104S], in that order: 34.6 °C and -16.6 °C.

Still in this series, the particulars now being: Aspergillus oryzae (strain ATCC 42149 / RIB 40); pH 7; 25 °C; Urea; CD; MOPS 30 mM; reversible: yes(0.98); structure 1RN1; whole UniProt chain shown.
MMYSKLLTLTTLLLPTALALPSLVERACDYTCGSNCYSSSDVSTAQAAGYQLHEDGETVGSNSYPHKYNNYEGFDFSVSSPYYEWPILSSGDVYSGGSPGADRTVFNENNQLAGVITHTGASGNNFVECT [V104T]: the “ddG of mutation (higher = less stable)” value was found to be 4.08 kcal/mol.

Usually Tm stands for the temperature at the midpoint of the melting transition.
